The test system of assay [1] is Gq signaling in HEK 293T cells. The assay can be described thus: IP1 accumulation in Opn5-expressing HEK 293T cells. The class given is cell-based. To be noted: continuous light 3 min; 100 μW/mm2; 470 nm. The method, then: Whether heterologous expression of the Opn5 orthologs from chicken, turtles, humans and mice (which share 80-90% protein sequence identity) have the capacity to mediate blue light-induced Gq signaling activation within HEK 293T cells is tested (FIG. 1a and table 7). Blue light for stimulation and the red intracellular calcium indicator Calbryte™ 630 AM dye are used to monitor the relative Ca^2+ response (FIG. 1b).
f, YM suppressed the IP1 accumulation evoked by continuous light stimulation (3 min; 100 μW/mm^2; 470 nm) in cOpn5-expressing HEK 293T cells (Left). ***P<0.0001, *P=0.0128; Tukey's multiple comparisons test.

Assay [2] relates to primary astrocyte cultures. The assay can be described thus: Light-induced Ca2+ transients in cOpn5-expressing primary astrocyte cultures. The class given is cell-based, mouse. To be noted: cOpn5-expressing astrocytes; Calbryte 630 AM. An excerpt:
cOpn5 optogenetics allows spatially precise control of cellular activity. Restricting brief light stimulation (63 ms) into a subcellular region of individual cOpn5-expressing HEK 293T cell results in the immediate activation of single cell. […] The findings are extended into primary cell cultures. cOpn5 is expressed in primary astrocyte cultures prepared from the neonatal mouse brain with AAV vectors for bicistronic expression of cOpn5 and the EGFP marker protein (FIG. 5a). […] If the light stimulation (63 ms) is precisely restricted to only subcellular region of an individual cOpn5-expressing astrocyte, Ca^2+ signal propagation within the individual cell is observed (FIG. 3f). Resembling the tests in HEK 293T cells, wave-like propagation of Ca^2+ signals from the stimulated astrocyte that proceeded gradually to more distal, non-stimulated, astrocytes is observed (FIG. 3g, h).
a, cOpn5 was expressed in cultured primary astrocytes using AAV-cOpn5-T2A-EGFP (green). Astrocyte identity was confirmed by GFAP immunostaining (red). Scale bar, 20 μm.
b, Pseudocolor images of the baseline and peak Ca^2+ signals following light stimulation of cOpn5-expressing astrocytes. Scale bar, 20 μm.
c, Plot of Ca^2+ signals and heat map representation of Ca^2+ signals across trials (n=25 cells).

The subject of assay [3] is astrocytes within the mouse S1 cortex. The assay can be described thus: In vivo two-photon imaging (920 nm) of ATP release (GRABATP sensor) following astrocyte activation. The method, then: The performance of cOpn5-mediated optogenetics in vivo is tested. Astrocytes represent an important population of non-excitable cells in the central nervous system, over which optogenetic tools have achieved only limited success to date^42. ATP is known as a messenger for inter-astrocyte communication; however, the real-time impacts of intracellular Ca^2+ on ATP release have not been visualized. Ultrasensitive GPCR Activation-Based ATP sensor GRABATP is used to monitor changes in extracellular ATP levels. Specifically, cOpn5 and the GRABATP sensor are expressed in the mouse S1 sensory cortex following the infusion of AAV vectors containing the GfaABC1D promoter (FIG. 6a), which is commonly used to drive gene expression in astrocytes.
Two-photon imaging of GRABATP signals from head-fixed awake, behaving mice is performed (FIG. 6a). It is initially expected that, in addition to the 920 nm light from pulsed laser for two-photon imaging, blue light pulses would be required to stimulate ATP signals. Strikingly, the 920 nm light itself, delivers for imaging, triggered massive ATP flashes in the cOpn5- and GRABATP-expressing mice, but not in mice that expressed the ATP sensor but lacked cOpn5 expression. Individual ATP flashes typically range in diameters of 20-100 μm and lasted for ˜1 min. The flash frequency gradually increases following ˜1 min of initial quiescence and peaked at the level of ˜50 flashes per min within the imaging area (640×640 μm^2) in ˜5 min (FIG. 6b, c and FIG. 7a). Moreover, high-frequency ATP flashes also occurs in the repeated trials (FIG. 7b).
a, Schematic diagram of the experimental setup for in vivo two-photon imaging (920 nm) of ATP release following cOpn5-mediated astrocyte activation. Images show the expression of cOpn5 (red) in astrocytes and the expression of a GRABATP sensor (green) in astrocytes within the mouse S1 cortex. Scale bar, 100 μm.

Assay [4] relates to LH GABAergic neurons of VGAT-Cre mice. In words: Optogenetics and food intake assay. The assay is classed as in vivo, mouse. The conditions noted are these: 20 Hz; 5 ms/pulse; 473 nm; 0.75 mW; vs EGFP-expressing control mice. The procedure: Finally, the utility of cOpn5-mediated optogenetics for modulating animal behavior is assessed. The lateral hypothalamus (LH) is a brain center with known functions in reward processing and feeding behaviors^54,55. cOpn5 is expressed in the LH GABAergic neurons of VGAT-Cre mice and implanted optical fibers to deliver light pulses into the LH of freely behaving mice (FIG. 8g). […] Electrophysiological recordings on LH and ZI cOpn5-expressing neurons are performed to characterize the response profiles. The injection sites and placement of optical fibers are confirmed by whole brain slices (FIG. 10a-c). […] Thus, cOpn5 is effective for rapidly, accurately, and reversibly modulating animal behavioral states.
g, Schematic diagram of the experimental setup for optogenetics and food intake assay. cOpn5-EGFP was expressed in GABAergic neurons within the lateral hypothalamus (LH) of VGAT-Cre mice. EGFP was expressed as a control.
h, Summary of light-induced (20 Hz; 5 ms/pulse; 473 nm; 0.75 mW output from the fiber tip), cOpn5-mediated activation of eating behaviors. ***P=0.0003; n.s., non-significant; n=6 mice; unpaired t test. Error bars indicate S.E.M.

Where [5] appears, read: cOpn5- and GRABATP-expressing mice, 920 nm light.

B1: cOpn5: Chicken (Gallus gallus) Opn5 (neuropsin) ortholog, SEQ ID NO:1, GenBank NM_001130743.1 (protein, listed as Gallus lafayetii)
chain: MSGMASDCNSSSQEEYLPHYVQQEDPFASKLSREADIIAGFYLTVIGILSTLGNGYVIFMSSKRKKKLRPAEIMTVNLAVCDLGISVVGKPFSIISFFSHRWIFGWMGCRWYGWAGFFFGCGSLITMTAVSLDRYLKICHLAYGTWLKRHHAFICLALIWAYATFWATVPFAGVGSYAPEPFGTSCTLDWWLAQASVAGQAFVLSILFFCLLFPTAVIVFSYVKIILKVKSSTKEVAHYDTRIQNSHILEMKLTKVAMLICAGFLIAWIPYAVVSVWSAFGQPDSVPIQFSVVPTLLAKSAAMYNPIIYQVIDCKFACCRSGGPKTLQKKSSLKESRMYTLSSHRDSAALSGTQLEV
With B1, in assay [1], the “light-induced increase in the level of inositol phosphate (IP1)” value is reported as “light-induced increase”. The “Ca2+ transients on blue light illumination” value in assay [2] is ~8 ΔF/F. The “initial quiescence before flash frequency increases” value in assay [3] (cOpn5- and GRABATP-expressing mice) is recorded as about 1 min. Besides, in assay [3] (setting [5]), the “diameter of individual ATP flashes” value is 20-100 μm and the “duration of individual ATP flashes” value is reported as about 1 min. Further, in assay [3] (cOpn5-expressing mice), the “time to peak ATP flash frequency” value was about 5 min. The “ATP flash frequency versus proinflammatory (LPS) treatment of non-cOpn5-expressing mice” value in assay [3] (mouse, in vivo) is given as about 25 times. Also, in assay [3] (pulsed laser for two-photon imaging), the two-photon activation wavelength is recorded as at least 920 nm. In addition, in assay [3] (within the imaging area (640×640 μm2), cOpn5-expressing mice), the “peak ATP flash frequency” value is about 50 flashes per min. Besides, the “food intake on light stimulation” value in assay [4] is listed as “significant increase in food intake”.
